Results: US12617870B2, “Methods of reversing ticagrelor activity” (SFJ Pharmaceuticals X, LTD., priority 2018, dated 2026)
“And” between values parts separate entries of the source, which are not always exact repeats. Equal entries are not always repeated. “Also recorded” adds a separate entry of the source.

Columns and labels:
[1] = tested on: platelet reactivity (VerifyNow P2Y12); assay: Phase 1 healthy volunteer study: VerifyNow P2Y12 platelet reactivity (PRU); format: in vivo, human; settings: sustained for 24 hours
Description: Secondary Objectives: 1) To determine the pharmacokinetics of ascending doses of IV PB2452 in the presence and absence of ticagrelor; 2) To determine the pharmacokinetics of ticagrelor and its active metabolite TAM in the presence and absence of PB2452; 3) To assess the effectiveness of a single IV PB2452 dose in reversing ticagrelor antiplatelet activity by measuring P2Y12 reaction units (PRU) with VerifyNow™ P2Y12 assay and platelet reactivity index (PRI) with vasodilator stimulated phosphoprotein (VASP) phosphorylation assay by enzyme-linked immunosorbent assay (ELISA); 3) To evaluate the pharmacokinetics and pharmacodynamics of restarting a single dose of oral ticagrelor 24 hours after IV PB2452 administration if a sixth dose of ticagrelor is given; 4) To evaluate the immunogenicity potential of PB2452 […]
(§1) The primary efficacy outcome was the effectiveness of PB2452 in reversing the antiplatelet effect of ticagrelor by analyzing platelet aggregation using light transmission aggregometry at multiple time points before and after PB2452 or placebo administration in ticagrelor pretreated subjects. Secondary efficacy outcomes were the effectiveness of ticagrelor reversal assessed using VerifyNow and the vasodilator stimulated phosphoprotein phosphorylation immunoassay (VASP).

[2] = Phase 1 healthy volunteer study: immunogenicity (anti-drug antibodies); format: in vivo, human
Method: (§2) The primary safety outcome was the frequency and severity of treatment emergent adverse events (AEs) associated with PB2452 with or without oral ticagrelor pretreatment. Clinical laboratory test results, vital sign measurements, 12-lead ECG and continuous telemetry results, and physical examination findings were also assessed at multiple timepoints from screening to the end of the 28-day safety follow-up period. Immunogenicity was assessed before and at 7 and 28 days after PB2452 administration.
Other secondary outcomes included assessment of the PB2452 and ticagrelor pharmacokinetic profiles and evaluation of PB2452 immunogenicity at day 7 and 28 post-infusion.

[3] = Phase 1 healthy volunteer study: pharmacokinetics of PB2452; format: in vivo, human
Method: Plasma Collection: Blood samples for PK analysis of PB2452 in plasma will be collected from all subjects at the following time points: before dosing (within 10 minutes prior to the initiation of study drug infusion and up to 28 days after the initiation of study drug infusion. Specific collection times for each cohort are listed in the table below: […]

P2Y12 receptor signaling = assay: Phase 1 healthy volunteer study: VASP phosphorylation ELISA (PRI); settings: human, in vivo
Description: Secondary Objectives: 1) To determine the pharmacokinetics of ascending doses of IV PB2452 in the presence and absence of ticagrelor; 2) To determine the pharmacokinetics of ticagrelor and its active metabolite TAM in the presence and absence of PB2452; 3) To assess the effectiveness of a single IV PB2452 dose in reversing ticagrelor antiplatelet activity by measuring P2Y12 reaction units (PRU) with VerifyNow™ P2Y12 assay and platelet reactivity index (PRI) with vasodilator stimulated phosphoprotein (VASP) phosphorylation assay by enzyme-linked immunosorbent assay (ELISA); 3) To evaluate the pharmacokinetics and pharmacodynamics of restarting a single dose of oral ticagrelor 24 hours after IV PB2452 administration if a sixth dose of ticagrelor is given; 4) To evaluate the immunogenicity potential of PB2452
VASP by ELISA: 1) PRU at each assessment point; 2) Percent of baseline in PRU; 3) Maximal PRU; 4) Time to maximal PRU; 5) Time to 60%, 80%, 90% of baseline PRU
as §1

[4] = Phase 1 healthy volunteer study: safety, treatment-emergent adverse events; format: in vivo, human
Description: Safety Assessments: Safety and tolerability will be assessed by monitoring and recording of AEs, clinical laboratory test results (hematology, coagulation, serum chemistry, and urinalysis), vital sign measurements (systolic and diastolic blood pressures, oral body temperature, respiratory rate, and heart rate), 12-lead ECG results, cardiac telemetry monitoring, immunogenicity, and physical examination findings.
as §2

[5] = tested on: platelet aggregation (ticagrelor antiplatelet activity); format: in vivo, human
Method: Platelet function was assessed using light transmission aggregometry (LTA), VerifyNow, and vasodilator stimulated phosphoprotein (VASP) assays before and after 48 hours of ticagrelor administration […] Cohorts 7 to 10 received an 18-gram fixed dose of PB2452 via various infusion regimens or placebo. Infusions of PB2452 in these cohorts were initiated 2 hours after the last ticagrelor pretreatment dose to coincide with the peak concentration of ticagrelor. (Gurbel (2009). Subjects in all cohorts were randomized in a 3:1 ratio to receive PB2452 or placebo. The primary efficacy outcome was the effectiveness of PB2452 in reversing the antiplatelet effect of ticagrelor by analyzing platelet aggregation using light transmission aggregometry at multiple time points before and after PB2452 or placebo administration in ticagrelor pretreated subjects. Secondary efficacy outcomes were the effectiveness of ticagrelor reversal assessed using VerifyNow and the vasodilator stimulated phosphoprotein phosphorylation immunoassay (VASP). The sample size of 64 was based on clinical and practical considerations and not on a formal statistical power calculation. The sample size was considered sufficient to adequately assess the safety, efficacy, and pharmacokinetic profiles of PB2452 and the pharmacokinetic and pharmacodynamic profiles of ticagrelor. Reversal of antiplatelet effect was evaluated by comparing the mean percent of baseline platelet aggregation between PB2452 and placebo using Wilcoxon rank-sum test. Multiplicity was adjusted using the Bonferroni method. Correlations between each pair of the platelet function tests were evaluated using Pearson's correlation and Spearman's rank correlation coefficient. Mean data from subjects receiving placebo were pooled across cohorts for all presentations. Categorical variables are summarized by their frequencies and percentages, and continuous variables are presented with the number of subjects with non-missing data, mean, standard deviation, median, minimum, and maximum. Descriptive statistics are presented for each cohort, and pooled placebo and PB2452 data. For pharmacodynamic data, platelet aggregation results were compared between each cohort and pooled placebo data (cohorts 4 to 6 and cohort 7 to 10 were pooled separately). All analyses were performed with SAS software, version 9.4 (SAS Institute).

[6] = of the 48 subjects given PB2452

B1: PB2452: recombinant human IgG1λ monoclonal Fab antibody fragment that binds specifically to ticagrelor and TAM (antibody, listed as Homo sapiens)
heavy: QVQLQESGAEVKKPGSSVRVSCKASGGTFDSYSIHWVRQAPGQGLEWMGGIIPAFGTLSSAQDFQARVTISADKSTSTAYMELSGLRSEDTAVYYCARGSFDYYFWSASHPPNDALAIWGQGTLVTVSSASTKGPSVFPLAPSSKSTSGGTAALGCLVKDYFPEPVTVSWNSGALTSGVHTFPAVLQSSGLYSLSSVVTVPSSSLGTQTYICNVNHKPSNTKVDKRVEPKSCDK
light: QSVVTQPPSVSAAPGQKVTISCSGSNSDIGNNYVSWYQQLPGTAPKLLIYDNNKRPSGIPDRFSGSKSGTSATLAITGLQAGDEADYYCGTWLYDRAVGLFGGGTKVTVLGQPKAAPSVTLFPPSSEELQANKATLVCLISDFYPGAVTVAWKADSSPVKAGVETTTPSKQSNNKYAASSYLSLTPEQWKSHRSYSCQVTHEGSTVEKTVAPTECS
modifications: PB2452 VH with CH1; PB2452 VL with CL
mean VerifyNow platelet reactivity [1]: ≥ 180 PRU | effect of antibody titers on PB2452 safety or efficacy ([2]; human, in vivo): no observed effect | subjects anti-drug antibody positive post-dosing [2, 6]: 6 (12.5%) subjects (%) | subjects with detectable anti-drug antibodies [2, 6]: 21 (43.8%) subjects (%) | subjects with pre-existing (pre-dose) antibodies [2, 6]: 15 (31.3%) subjects (%) | PB2452 exposure extended for ([3]; 18 gram dose level with 8- to 16-hour infusions): 12 to 24 h | estimated distribution half-life ([3]; IV, healthy subjects): 0.86 h | estimated terminal half-life ([3]; IV, healthy subjects): 6.9 h | volume of distribution ([3]; IV, healthy subjects): approximately 2.9 L | dose dependence of mean exposure ([3]; dose range of 0.1 to 9.0 grams): dose-linear increases in mean exposure | VASP PRI restored, relative to baseline (P2Y12 receptor signaling): ~100 % of baseline | duration of restored VASP PRI (P2Y12 receptor signaling): 20 to 24 h | time to restoration of VASP PRI (P2Y12 receptor signaling): ≤ 5 min | overall safety and tolerability ([4]; 0.1 to 18 g IV, healthy subjects): safe and well-tolerated | Number of Subjects with at Least 1 TEAE ([4]; All PB2452 (N = 48)): 17 (35.4%) n (%) and 17 (35.4) n (%) | Total Number of TEAEs ([4]; All PB2452 (N = 48)): 27 | Abdominal pain ([4]; TEAE, All PB2452 (N = 48)): 1 (2.1) n (%) | Acute respiratory failure ([4]; TEAE, All PB2452 (N = 48)): 1 (2.1) n (%) | Alcohol poisoning ([4]; TEAE, All PB2452 (N = 48)): 1 (2.1) n (%) | Blood urine present ([4]; TEAE, All PB2452 (N = 48)): 1 (2.1) n (%) | Conjunctivitis ([4]; TEAE, All PB2452 (N = 48)): 1 (2.1) n (%) | Contusion ([4]; TEAE, All PB2452 (N = 48)): 0 n (%) | Dizziness ([4]; TEAE, All PB2452 (N = 48)): 1 (2.1) n (%) | Eyelid irritation ([4]; TEAE, All PB2452 (N = 48)): 0 n (%) | Gastroenteritis ([4]; TEAE, All PB2452 (N = 48)): 1 (2.1) n (%) | Hematuria ([4]; TEAE, All PB2452 (N = 48)): 1 (2.1) n (%) | Infusion site bruising ([4]; TEAE, All PB2452 (N = 48)): 4 (8.3) n (%) | Infusion site extravasation ([4]; TEAE, All PB2452 (N = 48)): 2 (4.2) n (%) | Infusion site reaction ([4]; TEAE, All PB2452 (N = 48)): 1 (2.1) n (%) | Medical device site reaction ([4]; TEAE, All PB2452 (N = 48)): 3 (6.3) n (%) | Musculoskeletal chest pain ([4]; TEAE, All PB2452 (N = 48)): 0 n (%) | Nasopharyngitis ([4]; TEAE, All PB2452 (N = 48)): 1 (2.1) n (%) | Oropharyngeal pain ([4]; TEAE, All PB2452 (N = 48)): 1 (2.1) n (%) | Pharyngitis streptococcal ([4]; TEAE, All PB2452 (N = 48)): 1 (2.1) n (%) | Pneumonia aspiration ([4]; TEAE, All PB2452 (N = 48)): 1 (2.1) n (%) | Skin abrasion ([4]; TEAE, All PB2452 (N = 48)): 1 (2.1) n (%) | Upper limb fracture ([4]; TEAE, All PB2452 (N = 48)): 1 (2.1) n (%) | Vessel puncture site bruise ([4]; TEAE, All PB2452 (N = 48)): 2 (4.2) n (%) | deaths or adverse events leading to study drug discontinuation ([4]; human, in vivo): no deaths or adverse events leading to study drug discontinuation | drug-related adverse events ([4]; human, in vivo): no drug-related adverse events; also recorded: None of the adverse events was considered related to study drug | study-drug related serious adverse events, dose-limiting toxicities, infusion-related reactions ([4]; human, in vivo): no study-drug related serious adverse events, dose-limiting toxicities, or infusion-related reactions; also recorded: no serious adverse events or infusion reactions associated with PB2452 | time to complete restoration of platelet function ([5]; 3 g or 9 g PB2452 IV over 30 minutes): ≤ 30 min | reversal sustained for ([5]; 10-minute IV bolus followed by 16-hour infusion, multiple assays): over 20 hours | onset of reversal ([5]; 10-minute IV bolus followed by 16-hour infusion, multiple assays, vs placebo P<0.0001): ≤ 5 min | time to significantly increased mean platelet aggregation ([5]; Cohort 7, 18 g: 3.0 g bolus followed by 8 hour infusion): ≤ 2 h | time to reversal after initiation of the infusion ([5]; Cohorts 8 to 10, 18 g: 6.0 g bolus followed by infusions for 12 or 16 hours): ≤ 5 min | mean platelet aggregation restored, relative to pre-ticagrelor baseline ([5]; LTA, all post-treatment time points up to 20 hours): ≥ 80 % of baseline | rebound in platelet activity after drug cessation ([5]; human, in vivo): no evidence of rebound
